Laboratory results taken from patent US20230080534A1 (SHANGHAI BIOTROY BIOTECHNIQUE, published 2023).
No end group written: not given here.

Columns and labels:
[1] = biological target: T1, human SEMG2 full-length protein (human, UniProt Q02383 24-582, limits assumed); experiment: ELISA, immobilized antigen SEMG2 (1-582)
T1 construct: also called SEMG2 protein; semenogelin 2
T1 sequence: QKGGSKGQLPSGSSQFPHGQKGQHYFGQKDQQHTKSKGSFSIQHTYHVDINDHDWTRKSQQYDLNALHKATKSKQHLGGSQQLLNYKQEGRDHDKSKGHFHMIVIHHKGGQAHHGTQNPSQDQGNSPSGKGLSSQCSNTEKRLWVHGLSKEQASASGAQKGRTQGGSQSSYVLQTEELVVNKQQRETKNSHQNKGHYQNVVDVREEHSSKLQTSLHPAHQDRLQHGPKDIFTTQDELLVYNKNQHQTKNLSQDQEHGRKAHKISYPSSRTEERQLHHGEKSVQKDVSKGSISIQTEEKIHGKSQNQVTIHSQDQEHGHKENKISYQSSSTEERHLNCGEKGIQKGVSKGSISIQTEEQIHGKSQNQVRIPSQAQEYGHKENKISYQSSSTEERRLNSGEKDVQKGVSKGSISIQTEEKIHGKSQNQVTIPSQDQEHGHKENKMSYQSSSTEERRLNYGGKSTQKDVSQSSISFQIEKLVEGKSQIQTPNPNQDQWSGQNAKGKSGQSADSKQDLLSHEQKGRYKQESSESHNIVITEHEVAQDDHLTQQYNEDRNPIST
Description: (§1) To clearly distinguish the binding epitopes of blocking antibodies (i.e., antibodies that can inhibit the binding between SEMG2 and CD27) and non-blocking antibodies, a corresponding ELISA analysis method was established. […] Anti-mouse or anti-rabbit secondary antibodies were then used to detect the corresponding bound antibodies.

QIEKLVEGKAQIQ = biological target: T2, QIEKLVEGKAQIQ (not fully specified); experiment: ELISA, immobilized peptide QIEKLVEGKAQIQ
T2 construct: alanine at this position
T2 peptide: QIEKLVEGKAQIQ
Description: (§2) FIG. 20 depicts the value detected by ELISA, i.e., OD₄₅₀ absorbance. […] This experiment is used to determine the precise amino acid epitopes that different monoclonal antibodies bind to, and the relative importance of each amino acid to the binding antibody.

QIEKAVEGKSQIQ = biological target: T3, QIEKAVEGKSQIQ (not fully specified); experiment: ELISA, immobilized peptide QIEKAVEGKSQIQ
T3 construct: alanine at this position
T3 peptide: QIEKAVEGKSQIQ
Description: as §2

AIEKLVEGKSQIQ = biological target: T4, AIEKLVEGKSQIQ (not fully specified); experiment: ELISA, immobilized peptide AIEKLVEGKSQIQ
T4 construct: member of the group m41; the text speaks of glycine substitution, the sheet prints alanine
T4 peptide: AIEKLVEGKSQIQ
Description: as §2

QIEKLVAGKSQIQ = biological target: T5, QIEKLVAGKSQIQ (not fully specified); experiment: ELISA, immobilized peptide QIEKLVAGKSQIQ
T5 construct: member of the group m41; the text speaks of glycine substitution, the sheet prints alanine
T5 peptide: QIEKLVAGKSQIQ
Description: as §2
To further precisely define the exact epitopes (specific to the level of single amino acid) to which blocking antibodies MM02, MM05, MM07, MM08, MM13, MM14 bind, corresponding ELISA analysis method was established. […] Anti-mouse or anti-rabbit secondary antibodies were then used to detect the corresponding bound antibodies.

QIEKLVEGKSAIQ = biological target: T6, QIEKLVEGKSAIQ (not fully specified); experiment: ELISA, immobilized peptide QIEKLVEGKSAIQ
T6 construct: alanine at this position
T6 peptide: QIEKLVEGKSAIQ
Description: as §2

[2] = biological target: T1, human SEMG2 full-length protein; experiment: biolayer interferometry (ForteBio Blitz or Gator)
Protocol: The equilibrium dissociation constant (KD) of the antibody of the present invention binding to human SEMG2 was determined by biolayer interferometry (ForteBio Bltz or Gator instrument). […] 100 μl of SD buffer, antibody and SEMG2 were added to a 96-well black polystyrene half area microplate, respectively. Select the sensor location based on the sample location layout. KD values were analyzed using molecular interaction analysis software. In the experiments of the assays, the affinity constants of murine monoclonal antibodies and human antibodies H88-67, H88-93 and H88-96 are shown in Table 8, and the affinity and dissociation curves of SEMG2 and corresponding proteins are shown in FIG. 25.

QIAKLVEGKSQIQ = biological target: T7, QIAKLVEGKSQIQ (not fully specified); experiment: ELISA, immobilized peptide QIAKLVEGKSQIQ
T7 construct: member of the group m41; the text speaks of glycine substitution, the sheet prints alanine
T7 peptide: QIAKLVEGKSQIQ

[3] = biological target: T8, SEMG2(497-509) polypeptide QIEKLVEGKSQIQ (human); experiment: ELISA, immobilized antigen SEMG2 (497-509)
T8 peptide: QIEKLVEGKSQIQ
Description: as §1

QIEKLVEGASQIQ = biological target: T9, QIEKLVEGASQIQ (not fully specified); experiment: ELISA, immobilized peptide QIEKLVEGASQIQ
T9 construct: member of the group m41; the text speaks of glycine substitution, the sheet prints alanine
T9 peptide: QIEKLVEGASQIQ
Description: as §2

SEMG2(354-403) fragment = biological target: T10, SEMG2(354-403) fragment (human); experiment: ELISA, immobilized antigen SEMG2 (354-403)
T10 peptide: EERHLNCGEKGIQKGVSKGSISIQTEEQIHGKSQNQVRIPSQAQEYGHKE
Description: as §1

QIEKLVEAKSQIQ = biological target: T11, QIEKLVEAKSQIQ; experiment: ELISA, immobilized peptide QIEKLVEAKSQIQ
T11 construct: member of the group m41; position 504 is glycine in SEMG2 and the sheet prints alanine there
T11 peptide: QIEKLVEAKSQIQ
Description: as §2

[4] = biological target: T1, human SEMG2 full-length protein; experiment: ELISA, plate coated with SEMG2 protein, anti-mouse secondary antibody; the EC50 table prints no unit, the axis is log (antibody concentration, nM)
QIEKLVEGKSQIA = biological target: T12, QIEKLVEGKSQIA (not fully specified); experiment: ELISA, immobilized peptide QIEKLVEGKSQIA
T12 construct: alanine at this position
T12 peptide: QIEKLVEGKSQIA
Description: as §2

QIEKLVEGKSQAQ = biological target: T13, QIEKLVEGKSQAQ (not fully specified); experiment: ELISA, immobilized peptide QIEKLVEGKSQAQ
T13 construct: member of the group m41; the text speaks of glycine substitution, the sheet prints alanine
T13 peptide: QIEKLVEGKSQAQ
Description: as §2

SEMG2(563-574) fragment = biological target: T14, SEMG2(563-574) fragment (human); experiment: ELISA, immobilized antigen SEMG2 (563-574)
T14 peptide: VAQDDHLTQQYN
Description: as §1

QAEKLVEGKSQIQ = biological target: T15, QAEKLVEGKSQIQ (not fully specified); experiment: ELISA, immobilized peptide QAEKLVEGKSQIQ
T15 construct: member of the group m41; the text speaks of glycine substitution, the sheet prints alanine
T15 peptide: QAEKLVEGKSQIQ
Description: as §2

SEMG2(442-453) fragment = biological target: T16, SEMG2(442-453) fragment (human); experiment: ELISA, immobilized antigen SEMG2 (442-453)
T16 peptide: IHGKSQNQVTIP
Description: as §1

QIEKLAEGKSQIQ = biological target: T17, QIEKLAEGKSQIQ (not fully specified); experiment: ELISA, immobilized peptide QIEKLAEGKSQIQ
T17 construct: member of the group m41; the text speaks of glycine substitution, the sheet prints alanine
T17 peptide: QIEKLAEGKSQIQ
Description: as §2

QIEALVEGKSQIQ = biological target: T18, QIEALVEGKSQIQ (not fully specified); experiment: ELISA, immobilized peptide QIEALVEGKSQIQ
T18 construct: member of the group m41; the text speaks of glycine substitution, the sheet prints alanine
T18 peptide: QIEALVEGKSQIQ
Description: as §2

[5] = biological target: T8, SEMG2(497-509) polypeptide QIEKLVEGKSQIQ; experiment: ELISA, immobilized peptide QIEKLVEGKSQIQ
Description: as §2

B1: MM14 (antibody, IgG2b, V domains shown)
VH: QVQLKESGPGLVAPSQSLSITCTVSGFSLTSYAVSWVRQPPGKGLEWLGIIWGDGSTNYHSALISRLSISKDNSKSQVFLKLNSLQTDDTATYYCAKQERFSDGYYDGFAYWGQGTLVTVSA
VL: QIVLTQSPAIMSASPGEKVTITCSASSSVSYMHWFQQKPGTSPKLWIYSTSNLASGVPARFSGSGSGTSYSLTISRMEAEDAATYYCQQRSSYPFTFGSGTKLEIKR
B1 was tested. Which A450 absorbance [1] did it give?
Its A450 absorbance is 1.12.

And the OD450 absorbance (QIEKLVEGKAQIQ)?
Its OD450 absorbance is 0.022.

And the OD450 absorbance (QIEKAVEGKSQIQ)?
Its OD450 absorbance is 0.161.

And the OD450 absorbance (AIEKLVEGKSQIQ)?
The OD450 absorbance was 0.813.

And the OD450 absorbance (QIEKLVAGKSQIQ)?
The OD450 absorbance was 0.766.

What about the OD450 absorbance (QIEKLVEGKSAIQ) of the same binder?
The OD450 absorbance was 1.18.

What about the Kd [2] of the same binder?
The Kd was 1.44 nM.

What about the OD450 absorbance (QIAKLVEGKSQIQ) of the same binder?
Its OD450 absorbance is 0.776.

What about the A450 absorbance [3] of the same binder?
The A450 absorbance was 1.11.

What about the OD450 absorbance (QIEKLVEGASQIQ) of the same binder?
The OD450 absorbance was 0.621.

And the A450 absorbance (SEMG2(354-403) fragment)?
Its A450 absorbance is 0.003.

Does B1 bind (SEMG2(354-403) fragment)?
Result: no binding

And the OD450 absorbance (QIEKLVEAKSQIQ)?
Its OD450 absorbance is 0.47.

And the EC50 [4]?
Its EC50 is 0.507 nM.

And the OD450 absorbance (QIEKLVEGKSQIA)?
The OD450 absorbance was 1.23.

And the OD450 absorbance (QIEKLVEGKSQAQ)?
Its OD450 absorbance is 0.588.

Does B1 bind (SEMG2(563-574) fragment)?
Result: no binding

And the OD450 absorbance (QAEKLVEGKSQIQ)?
The OD450 absorbance was 0.54.

What about the A450 absorbance (SEMG2(442-453) fragment) of the same binder?
Its A450 absorbance is 0.007.

Does B1 bind (SEMG2(442-453) fragment)?
Result: no binding

And the OD450 absorbance (QIEKLAEGKSQIQ)?
Its OD450 absorbance is 0.804.

What about the OD450 absorbance (QIEALVEGKSQIQ) of the same binder?
The OD450 absorbance was 0.777.

What about the OD450 absorbance [5] of the same binder?
Its OD450 absorbance is 1.17.

B2: MM07 (antibody, V domains shown)
VH: QIQLVQSGPELKKPGETVRISCKASGYTLTTAGMQWVQKIPGKGLKWIGWINTHSGVAEFAEDFKGRFAFSLETSANTAYLQIRNLKNEDTATYFCARLGLLGYWGQGTTLTVSS
VL: DILLTQSPAILSVSPGERVSFSCRASQSIGTTIHWYQQRTNGSPRLLIKYASESISGIPSRFSGSGSGTDFTLSINSVESEDIADYYCQQSNSWPWTFGGGTKLEIKR
notes: The VH and VL begin with what look like leader peptides (MDWLW..., MVSSAQ...)
For B2, which A450 absorbance [1] is on record?
The A450 absorbance was 1.14.

And the OD450 absorbance (QIEKLVEGKAQIQ)?
Its OD450 absorbance is 0.296.

What about the OD450 absorbance (QIEKAVEGKSQIQ) of the same binder?
The OD450 absorbance was 0.123.

And the OD450 absorbance (AIEKLVEGKSQIQ)?
Its OD450 absorbance is 0.919.

And the OD450 absorbance (QIEKLVAGKSQIQ)?
The OD450 absorbance was 0.899.

What about the OD450 absorbance (QIEKLVEGKSAIQ) of the same binder?
The OD450 absorbance was 1.16.

And the Kd [2]?
The Kd was 1.82 nM.

And the OD450 absorbance (QIAKLVEGKSQIQ)?
The OD450 absorbance was 0.48.

And the A450 absorbance [3]?
Its A450 absorbance is 1.14.

What about the OD450 absorbance (QIEKLVEGASQIQ) of the same binder?
Its OD450 absorbance is 0.79.

What about the A450 absorbance (SEMG2(354-403) fragment) of the same binder?
The A450 absorbance was 0.001.

Does B2 bind (SEMG2(354-403) fragment)?
Result: no binding

And the OD450 absorbance (QIEKLVEAKSQIQ)?
Its OD450 absorbance is 0.58.

And the OD450 absorbance (QIEKLVEGKSQIA)?
The OD450 absorbance was 1.26.

And the OD450 absorbance (QIEKLVEGKSQAQ)?
The OD450 absorbance was 0.509.

And the A450 absorbance (SEMG2(563-574) fragment)?
Its A450 absorbance is 0.012.

Does B2 bind (SEMG2(563-574) fragment)?
Result: no binding

And the OD450 absorbance (QAEKLVEGKSQIQ)?
The OD450 absorbance was 0.833.

What about the A450 absorbance (SEMG2(442-453) fragment) of the same binder?
The A450 absorbance was 0.011.

Does B2 bind (SEMG2(442-453) fragment)?
Result: no binding

What about the OD450 absorbance (QIEKLAEGKSQIQ) of the same binder?
Its OD450 absorbance is 0.814.

What about the OD450 absorbance (QIEALVEGKSQIQ) of the same binder?
The OD450 absorbance was 0.822.

And the OD450 absorbance [5]?
Its OD450 absorbance is 1.19.
